Reference: publication PMC11440508, “Dually Labeled Neurotensin NTS1R Ligands for Probing Radiochemical and Fluorescence-Based Binding Assays” (Journal of Medicinal Chemistry, 2024)
Starred links: 1 amine or outer side, 2 acyl side, 3 side chain; linkers in the order of their positions; H or OH if unused. Non-standard residues stand in square brackets, D forms with d. No end group written: not given here. *: point of attachment. 5‑TAMRA = CN(C)c1ccc2c(-c3ccc(C(=O)*)cc3C(=O)[O-])c3ccc(N(C)C)cc3[o+]c2c1; Propanoyl(3-triazol-4-yl) = O=C(CCc1cn([*:1])nn1)[*:2]; Gly(piperidin-4-yl) = N[C@H](C(=O)O)C1CCNCC1; Pent4ynoyl = C#CCCC(=O)*; Pra = C#CC[C@H](N)C(=O)O

Experiments:
[1] = biological target: T1, human neurotensin receptor type 1 (hNTS1R), endogenous in HT-29 colon carcinoma cells (human (endogenous in HT-29), UniProt P30989 1-418); assay: radioligand binding; competition with [^3H]UR-MK300 at intact hNTS1R-expressing HT-29 cells, 23 ± 1 °C; pIC50 converted to pKi (Cheng–Prusoff); conditions: one partner purified
T1 construct: human neurotensin receptor type 1 (hNTS1R), endogenously expressed in HT-29 colon carcinoma cells; also called HT-29 cells; source: endogenous, intact HT-29 colon carcinoma cells

[2] = biological target: T2, human neurotensin receptor type 1 (hNTS1R), stably expressed in CHO cells (human, UniProt P30989 1-418); assay: radioligand binding; association (1.3 nM [^3H]13, 1.1 nM [^3H]18; biphasic fit) and dissociation (started with 1 μM NT(8–13)) at intact adherent CHO-hNTS1R cells, DPBS1, 23 ± 1 °C; kon(fast) and Kd(kin) calculated; conditions: one partner purified
T2 construct: human neurotensin receptor type 1 (hNTS1R), wild type, stably expressed in Chinese hamster ovary cells; also called CHO-hNTS1R cells; CHO-NTS1R cells; source: CHO cells stably expressing hNTS1R; intact adherent cells, intact suspended cells and membrane preparations

[3] = biological target: T2, human neurotensin receptor type 1 …; assay: radioligand binding; saturation binding at intact suspended CHO-hNTS1R cells, 96-well plates, filtration, DPBS1 with 1% BSA, 23 ± 1 °C; conditions: one partner purified
[4] = biological target: T2, human neurotensin receptor type 1 …; assay: radioligand binding; association (1.8 nM [^3H]13, 1.2 nM [^3H]18; 96-well plates; biphasic fit) and dissociation (50 mL falcon tubes, started with 25 μM NT(8–13)) at intact suspended CHO-hNTS1R cells, DPBS1, 23 ± 1 °C; kon(fast) and Kd(kin) calculated; conditions: one partner purified
[5] = biological target: T1, human neurotensin receptor type 1 …; assay: radioligand binding; saturation binding at intact adherent cells (CHO-hNTS1R or HT-29), DPBS1 with 1% BSA, 23 ± 1 °C; radioligand 1:1 diluted with its cold analogue; conditions: one partner purified
[6] = biological target: T2, human neurotensin receptor type 1 …; assay: as above; conditions: one partner purified
[7] = biological target: T2, human neurotensin receptor type 1 …; assay: cell-based or functional assay
[8] = biological target: T2, human neurotensin receptor type 1 …; assay: flow cytometry on cells; association (1 nM ligand) and dissociation (10 nM preincubation, started with ca. 25 μM NT(8–13)) at intact suspended CHO-hNTS1R cells, 5 mL tubes, DPBS1, 23 ± 1 °C; kon and Kd(kin) calculated; conditions: one partner purified
[9] = biological target: T1, human neurotensin receptor type 1 …; assay: high-content imaging (HCI) of fluorescent ligand on cells; equilibrium saturation binding at intact adherent CHO-hNTS1R or HT-29 cells, DPBS1 with 0.1% BSA, 23 ± 1 °C, washing step before reading; unspecific binding with 1 μM NT(8–13); conditions: one partner purified
[10] = biological target: T2, human neurotensin receptor type 1 …; assay: as above; conditions: one partner purified
[11] = biological target: T3, hNTS1R displayed on budded baculovirus particles (NTS1R-BBV) (human, UniProt P30989 1-418); assay: fluorescence polarisation; fluorescence anisotropy, equilibrium binding: fixed ligand (0.3 or 1 nM), increasing amounts of hNTS1R-displaying BBVs, signal at 10 min, 27 °C, DPBS2; unspecific binding with 1 μM SR142948; conditions: one partner purified
T3 construct: human neurotensin receptor type 1 (hNTS1R) from pcDNA3.1-hNTS1-NlucC, subcloned into pIMACE-CMVintP10; also called hNTS1R-displaying BBVs; hNTS1R-Nluc

[12] = biological target: T2, human neurotensin receptor type 1 …; assay: high-content imaging (HCI) of fluorescent ligand on cells; association (2.5 nM ligand) and dissociation (started with 1 μM NT(8–13)) at intact adherent CHO-hNTS1R cells, DPBS1, 23 ± 1 °C; kon = (kobs – koff)/[FL], Kd(kin) = koff/kon; conditions: one partner purified
[13] = biological target: T1, human neurotensin receptor type 1 …; assay: flow cytometry on cells; equilibrium saturation binding at intact suspended CHO-hNTS1R or HT-29 cells, 96-well plates, DPBS1, 23 ± 1 °C, homogeneous; unspecific binding with 1 μM NT(8–13); conditions: one partner purified
[14] = biological target: T2, human neurotensin receptor type 1 …; assay: as above; conditions: one partner purified
[15] = biological target: T4, human neurotensin receptor type 2 (hNTS2R) in homogenates of HEK293T cells (human, UniProt O95665 1-410); assay: radioligand binding; competition with [^3H]UR-MK300 at homogenates of HEK293T cells transiently transfected with hNTS2R; Tris buffer (50 mM Tris HCl, 1 mM EDTA, pH 7.4) with 0.1% BSA; conditions: one partner purified
T4 construct: human neurotensin receptor type 2 (hNTS2R); also called HEK293T-hNTS2R cells; source: HEK293T, transiently transfected, homogenates

[16] = biological target: T3, hNTS1R displayed on budded baculovirus …; assay: fluorescence polarisation; fluorescence anisotropy, association and dissociation (started with 1 μM SR142948) at hNTS1R-displaying BBVs, 27 °C, DPBS2; kon and Kd(kin) from a fit with koff constrained; conditions: one partner purified
[17] = biological target: T2, human neurotensin receptor type 1 …; assay: radioligand binding; association (2.5 nM) and dissociation (12 nM preincubation, 30 min) at membranes of CHO-hNTS1R cells, DPBS1 with 50 μM GppNHp and 100 μg/mL saponin, 23 °C; kon and Kd(kin) calculated; conditions: one partner purified
[18] = biological target: T2, human neurotensin receptor type 1 …; assay: radioligand binding; saturation binding at membranes of CHO-hNTS1R cells, DPBS1 with 50 μM GppNHp and 100 μg/mL saponin, 23 °C; conditions: one partner purified

T3 sequence (P30989 whole entry): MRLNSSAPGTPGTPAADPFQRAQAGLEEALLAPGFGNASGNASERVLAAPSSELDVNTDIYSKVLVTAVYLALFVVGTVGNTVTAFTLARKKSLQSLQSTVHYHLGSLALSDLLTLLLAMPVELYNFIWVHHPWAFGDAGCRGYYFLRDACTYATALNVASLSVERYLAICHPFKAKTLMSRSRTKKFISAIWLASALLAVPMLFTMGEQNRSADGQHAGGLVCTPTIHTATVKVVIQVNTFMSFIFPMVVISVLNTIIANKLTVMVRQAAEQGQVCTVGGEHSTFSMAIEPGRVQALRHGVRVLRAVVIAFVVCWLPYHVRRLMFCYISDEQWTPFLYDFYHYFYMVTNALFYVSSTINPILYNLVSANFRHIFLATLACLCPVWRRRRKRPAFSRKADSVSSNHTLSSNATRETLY
T1 sequence (P30989 whole entry): as above
T2 sequence (P30989 whole entry): as above
T4 sequence (O95665 whole entry): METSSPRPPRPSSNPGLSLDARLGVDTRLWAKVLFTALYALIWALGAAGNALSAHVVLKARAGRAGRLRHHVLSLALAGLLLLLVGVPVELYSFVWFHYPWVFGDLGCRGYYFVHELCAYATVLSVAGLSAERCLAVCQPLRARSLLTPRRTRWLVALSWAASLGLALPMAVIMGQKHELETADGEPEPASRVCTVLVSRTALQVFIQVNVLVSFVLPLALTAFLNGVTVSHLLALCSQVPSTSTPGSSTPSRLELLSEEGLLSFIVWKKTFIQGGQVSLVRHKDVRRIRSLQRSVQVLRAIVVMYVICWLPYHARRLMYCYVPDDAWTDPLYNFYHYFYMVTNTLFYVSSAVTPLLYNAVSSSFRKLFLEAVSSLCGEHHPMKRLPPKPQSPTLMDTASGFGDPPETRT

B1: 5-TAMRA-labeled, propionylated NT(6–13) derivative 16 (peptide)
chain: {4‑(N-propanoyl)aminobutanoyl}-X[Gly(piperidin-4-yl)]PRRPYIL
modifications: not fully specified (residue 1); printed as *N*^α^-[(4-(*N*-Propanoyl)aminobutanoyl)]-2-(1-(1-*N*-((1-carboxylato-2-(6-(dimethylamino)-3-(dimethyliminio)-3*H*-xanthen-9-yl)phen-5-yl)1-oxomethyl)aminoprop-3-yl-1*H*-1,2,3-triazol-4-yl)methyl)-Gly-2-(piperidin-4-yl)-Gly-Pro-Arg-Arg-Pro-Tyr-Ile-Leu
- Ki [1]: 0.77 nM

B2: N^α-(Pent-4-ynoyl)-2-(piperidin-4-yl)-Gly-Pro-N^ω-[(4-aminobutyl)aminocarbonyl]Arg-Arg-Pro-β,β-dimethyl-D-Tyr-Ile-Leu (10b) (peptide)
chain: XPRRPYIL
modifications: N-terminal N^α-(pent-4-ynoyl); position 6 (X) = 2-(piperidin-4-yl)-Gly (pipGly); Arg8 = N^ω-[(4-aminobutyl)aminocarbonyl]Arg; position 11 = β,β-dimethyl-D-Tyr
- Ki [1]: 140 nM

B3: [^3H]18, tritiated analogue of the Cy3B-labeled peptide 18 (peptide)
chain: XPRRPYIL
modifications: as 18, with a [^3H]propionyl instead of the propionyl group at the N^ω-carbamoylated Arg8; N-terminal Cy3B through a triazolylpropanoyl group; position 6 (X) = pipGly; position 11 = …
- koff [2]: 0.000433 s⁻¹
- Kd [3]: 1.2 nM
- koff [4]: 0.0005 s⁻¹
- Kd [5]: 1.9 nM
- Kd [6]: 1.1 nM

B4: N^α-(Pent-4-ynoyl)-Lys-Pro-Arg-Arg-Pro-Tyr-Ile-Leu (7) (peptide)
peptide: Pent4ynoyl-KPRRPYIL
notes: neurotensin NT(6–13), printed in three-letter code; numbers count on: the mature neurotensin; also called peptide 7; source: synthetic peptide (SPPS, preparative HPLC)
- Ki [1]: 0.54 nM

B5: N^α-(Pent-4-ynoyl)-2-(piperidin-4-yl)-Gly-Pro-N^ω-[(4-aminobutyl)aminocarbonyl]Arg-Arg-Pro-Tyr-Ile-Leu (6) (peptide)
chain: XPRRPYIL
modifications: N-terminal N^α-(pent-4-ynoyl); position 6 (X) = 2-(piperidin-4-yl)-Gly (pipGly); Arg8 = N^ω-[(4-aminobutyl)aminocarbonyl]Arg
- EC50 of NTS1R agonism, Fura-2 Ca^2+ assay at CHO-NTS1R cells [7]: 0.0065 nM
- Ki [1]: 0.64 nM

B6: N^α-(Pent-4-ynoyl)-2-(piperidin-4-yl)-Gly-Pro-N^ω-[(4-aminobutyl)aminocarbonyl]Arg-Arg-Pro-β,β-dimethyl-L-Tyr-Ile-Leu (10a) (peptide)
chain: XPRRPYIL
modifications: N-terminal N^α-(pent-4-ynoyl); position 6 (X) = 2-(piperidin-4-yl)-Gly (pipGly); Arg8 = N^ω-[(4-aminobutyl)aminocarbonyl]Arg; position 11 = β,β-dimethyl-L-Tyr
- EC50 of NTS1R agonism, Fura-2 Ca^2+ assay at CHO-NTS1R cells [7]: 0.32 nM
- Ki [1]: 1.1 nM

B7: 5-TAMRA-labeled, propionylated NT(6–13) derivative 13 (UR-FE051) (peptide)
chain: XPRRPYIL
modifications: N-terminus: 5-TAMRA attached through a 3-(1H-1,2,3-triazol-4-yl)propanoyl group; position 6 (X) = 2-(piperidin-4-yl)-Gly (pipGly); Arg8 = N^ω-[(4-(N-propanoyl)aminobutyl)aminocarbonyl]Arg
- Kd [8]: 0.041 nM
- koff [8]: 0.000333 s⁻¹
- kon [8]: 8e+06 M⁻¹ s⁻¹
- Kd [9]: 4.7 nM
- Kd [10]: 1.1 nM
- Kd [11]: 1.3 nM
- Kd [12]: 2.8 nM
- koff [12]: 0.000733 s⁻¹
- kon [12]: 267000 M⁻¹ s⁻¹
- Kd [13]: 0.25 nM
- Kd [14]: 2.6 nM
- EC50 of NTS1R agonism, Fura-2 Ca^2+ assay at CHO-NTS1R cells [7]: 0.05 nM
- Ki [15]: 2.4 nM
- Ki [1]: 1.1 nM
- Kd [16]: 1 nM
- koff [16]: 0.0102 s⁻¹
- kon [16]: 1.67e+07 M⁻¹ s⁻¹

Binder: {4‑aminobutanoyl}-[Pra][Gly(piperidin-4-yl)]PRRPYIL [N^α-(4-Aminobutanoyl)-2-(prop-2-ynyl)-Gly-2-(piperidin-4-yl)-Gly-Pro-Arg-Arg-Pro-Tyr-Ile-Leu (9)]
- Ki [1]: 0.33 nM

B8: N^α-(Pent-4-ynoyl)-D-Lys-Pro-Arg-Arg-Pro-Tyr-Ile-Leu (8) (peptide)
peptide: Pent4ynoyl-[dK]PRRPYIL
notes: neurotensin NT(6–13) with D-Lys at position 6, printed in three-letter code; numbers count on: the mature neurotensin; also called peptide 8; source: synthetic peptide (SPPS, preparative HPLC)
- Ki [1]: 0.85 nM

B9: 5-TAMRA-labeled, propionylated NT(6–13) derivative 15 (peptide)
peptide: {5‑TAMRA-Propanoyl(3-triazol-4-yl)}-[dK](propanoyl)PRRPYIL
notes: neurotensin NT(6–13) with D-Lys at position 6, printed in three-letter code; numbers count on: the mature neurotensin; also called peptide 15; source: synthetic peptide (from 8 by propionylation and click reaction, preparative HPLC)
- Ki [1]: 3 nM

B10: [^3H]13, tritiated analogue of the 5-TAMRA-labeled peptide 13 (peptide)
chain: XPRRPYIL
modifications: as 13, with a [^3H]propionyl instead of the propionyl group at the N^ω-carbamoylated Arg8; N-terminal 5-TAMRA through a triazolylpropanoyl group; position 6 (X) = pipGly
- koff [2]: 0.000233 s⁻¹
- Kd [17]: 2.7 nM
- koff [17]: 0.00617 s⁻¹
- kon [17]: 2.17e+06 M⁻¹ s⁻¹
- Kd [18]: 6.2 nM
- Kd [3]: 1.8 nM
- koff [4]: 0.0006 s⁻¹
- Kd [5]: 1.2 nM
- Kd [6]: 1.3 nM

B11: 5-TAMRA-labeled, propionylated NT(6–13) derivative 14 (peptide)
peptide: {5‑TAMRA-Propanoyl(3-triazol-4-yl)}-K(propanoyl)PRRPYIL
notes: neurotensin NT(6–13), printed in three-letter code; numbers count on: the mature neurotensin; also called peptide 14; source: synthetic peptide (from 7 by propionylation and click reaction, preparative HPLC)
- Ki [1]: 1.5 nM
